Laboratory results published in patent publication US20200277359A1.

Molecular target: Recombinant CHIKV E2 ectodomain protein (corresponding to the CHIKV-LR2006 strain) (Chikungunya virus strain LR2006)
Experiment: ELISA on coated E2 ectodomain

OD450: < 0.1 od
Substance: murine CHK-152 (antibody)
